In IntAct's records for PubMed 21398607:

Target: wasp_mouse Was (UniProt P70315)
Sequence (P70315 whole entry): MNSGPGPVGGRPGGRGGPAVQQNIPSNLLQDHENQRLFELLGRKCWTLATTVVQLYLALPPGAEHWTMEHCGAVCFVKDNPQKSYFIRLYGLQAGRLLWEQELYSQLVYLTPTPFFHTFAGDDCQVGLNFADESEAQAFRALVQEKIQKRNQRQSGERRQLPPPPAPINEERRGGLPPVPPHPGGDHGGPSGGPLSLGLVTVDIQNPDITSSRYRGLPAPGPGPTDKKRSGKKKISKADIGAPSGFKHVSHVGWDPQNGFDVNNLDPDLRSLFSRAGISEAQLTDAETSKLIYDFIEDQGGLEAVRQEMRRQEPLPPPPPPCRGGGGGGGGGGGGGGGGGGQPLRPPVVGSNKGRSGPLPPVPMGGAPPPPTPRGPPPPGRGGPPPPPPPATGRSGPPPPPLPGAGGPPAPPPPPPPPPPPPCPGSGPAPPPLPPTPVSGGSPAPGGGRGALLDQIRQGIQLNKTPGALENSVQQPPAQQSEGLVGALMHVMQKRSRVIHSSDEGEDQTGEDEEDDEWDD

Chain of WAS/WASL-interacting protein family member 1 (Homo sapiens), O43516 S436A (O43516 whole entry S436A): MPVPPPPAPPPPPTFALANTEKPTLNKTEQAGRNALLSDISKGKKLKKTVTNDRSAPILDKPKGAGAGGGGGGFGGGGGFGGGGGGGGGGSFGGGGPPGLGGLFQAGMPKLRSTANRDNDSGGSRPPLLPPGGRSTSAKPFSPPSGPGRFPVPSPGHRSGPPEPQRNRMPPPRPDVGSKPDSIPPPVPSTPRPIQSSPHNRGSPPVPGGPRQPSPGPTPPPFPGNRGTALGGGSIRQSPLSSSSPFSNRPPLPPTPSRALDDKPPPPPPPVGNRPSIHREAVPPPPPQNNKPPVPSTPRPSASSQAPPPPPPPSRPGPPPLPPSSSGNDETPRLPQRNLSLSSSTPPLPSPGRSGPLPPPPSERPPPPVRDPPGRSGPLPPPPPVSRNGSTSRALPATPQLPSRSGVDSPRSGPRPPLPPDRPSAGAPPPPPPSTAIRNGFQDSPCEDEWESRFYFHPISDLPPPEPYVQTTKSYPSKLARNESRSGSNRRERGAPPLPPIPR

- effect of a mutation on the interaction: disrupting interaction
Substance: WAS/WASL-interacting protein family member 1 (Homo sapiens), O43516 S436A
